In publication PMC2615086 (The Journal of Cell Biology, 2009):

Target: T1, Fic1-His6 (S. pombe, UniProt O94701 1-272)
T1 sequence: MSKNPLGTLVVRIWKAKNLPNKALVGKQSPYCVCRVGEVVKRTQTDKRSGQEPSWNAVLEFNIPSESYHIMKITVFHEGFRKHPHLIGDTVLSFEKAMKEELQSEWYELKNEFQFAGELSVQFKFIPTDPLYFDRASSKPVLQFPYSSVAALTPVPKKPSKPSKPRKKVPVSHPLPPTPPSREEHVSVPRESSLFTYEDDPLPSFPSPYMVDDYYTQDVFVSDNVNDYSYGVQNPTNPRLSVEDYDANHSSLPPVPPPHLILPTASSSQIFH
Assay: quantitative in vitro binding

B1: MBP-Cdc15SH3 (domain or fragment)
chain: SSMSLYGEYNKSQPQLSMQRSVSPNPLGPNRRSSSVLQSQKSTSSNTSNRNNGGYSGSRPSSEMGHRYGSMSGRSMRQVSQRSTSRARSPEPTNRNSVQSKNVDPRATFTAEGEPILGYVIALYDYQAQIPEEISFQKGDTLMVLRTQEDGWWDGEIINVPNSKRGLFPSNFVQTV
Binder B1 has a Kd of about 3000 nM.
